Results on 2 molecules are retold here after patent US20110091449A1 (University of Pennsylvania, published 2011).

The target in experiment [1] is T1, recombinant human desmoglein 3 (Dsg3) on ELISA plates (MBL) (human, UniProt P32926 50-615, limits assumed).
T1 construct: Commercial Dsg3 ELISA plate (MBL)
T1 sequence (looked up): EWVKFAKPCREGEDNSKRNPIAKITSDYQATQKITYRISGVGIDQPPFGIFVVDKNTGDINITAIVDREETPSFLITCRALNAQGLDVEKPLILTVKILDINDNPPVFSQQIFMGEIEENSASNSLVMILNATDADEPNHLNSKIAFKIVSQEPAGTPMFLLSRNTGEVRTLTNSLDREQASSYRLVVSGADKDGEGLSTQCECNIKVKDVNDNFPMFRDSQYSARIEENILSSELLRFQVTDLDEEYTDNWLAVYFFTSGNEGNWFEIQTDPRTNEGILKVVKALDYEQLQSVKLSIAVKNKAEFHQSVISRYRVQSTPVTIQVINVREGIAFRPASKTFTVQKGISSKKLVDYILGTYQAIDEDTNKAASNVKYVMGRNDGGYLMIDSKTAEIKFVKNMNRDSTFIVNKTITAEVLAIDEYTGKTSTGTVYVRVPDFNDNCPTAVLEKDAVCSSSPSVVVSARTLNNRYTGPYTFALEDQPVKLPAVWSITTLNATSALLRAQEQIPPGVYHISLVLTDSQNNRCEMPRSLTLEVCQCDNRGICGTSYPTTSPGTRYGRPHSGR
The experiment is described as follows: Dsg3 ELISA (MBL), soluble scFv, anti-HA detection. A general note: In an ELISA, binding on a coated surface is turned into a signal by an enzyme label.

Experiment [2] concerns the target T2, baculovirus-produced recombinant human Dsg4-EHis (human, UniProt Q86SJ6 50-631).
T2 construct: not shown: E-tag and histidine tag
T2 sequence (looked up): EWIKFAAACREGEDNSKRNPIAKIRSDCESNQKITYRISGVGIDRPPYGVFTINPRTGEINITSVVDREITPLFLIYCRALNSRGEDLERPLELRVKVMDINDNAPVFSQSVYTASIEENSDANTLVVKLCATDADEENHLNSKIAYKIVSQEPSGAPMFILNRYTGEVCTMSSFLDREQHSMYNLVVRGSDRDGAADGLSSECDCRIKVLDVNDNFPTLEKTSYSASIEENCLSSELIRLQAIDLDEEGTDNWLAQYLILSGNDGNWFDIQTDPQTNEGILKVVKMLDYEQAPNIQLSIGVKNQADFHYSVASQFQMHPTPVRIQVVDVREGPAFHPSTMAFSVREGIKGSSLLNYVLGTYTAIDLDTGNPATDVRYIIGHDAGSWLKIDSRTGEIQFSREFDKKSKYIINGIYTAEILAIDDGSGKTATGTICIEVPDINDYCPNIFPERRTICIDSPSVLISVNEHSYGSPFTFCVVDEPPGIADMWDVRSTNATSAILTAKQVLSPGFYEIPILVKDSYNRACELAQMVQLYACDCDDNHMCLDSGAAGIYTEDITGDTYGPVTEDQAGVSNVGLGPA
The experiment in a line: immunoprecipitation of Dsg4-EHis with scFv, anti-E tag immunoblot. The method, then: To determine whether anti-Dsg1 scFvs also bind Dsg4, baculovirus-produced recombinant human Dsg4-EHis and human Dsg1-EHis (“EHis” tag defined above) was used (Nagasaka et al., 2004 J. Clin. Invest 114:1484-1492.). Baculovirus-infected insect cell culture supernatants containing recombinant molecules were incubated with scFvs for 30 minutes and then immunoprecipitated with anti-HA agarose (Sigma-Aldrich) at 4° C. for 2 hours with gentle rotation. After washing with TBS-Ca, the immunoprecipitates were resuspended in Laemmli sample buffer, separated by SDS-PAGE, and transferred to nitrocellulose membranes (Bio-Rad Labratories). Membranes were probed with HRP-conjugated anti-E-tag antibody (1:2000 dilution, GE Healthcare Bio-Sciences).
Some pemphigus sera bind Dsg4, and this binding was due to antibodies against Dsg1 that cross react with Dsg4. To determine whether any of the anti-Dsg1 monoclonal antibodies crossreact with Dsg4, scFvs were used to immunoprecipitate recombinant Dsg4 containing a carboxy-terminal E-epitope tag, then identified its presence on an immunoblot stained with anti-E tag antibodies.
In general terms: A western blot detects proteins with antibodies after separation by electrophoresis.

B1: 1-18/L12 (scFv)
scFv: ELQMTQSPSTLSASVGDRVTITCRASQGISNWLAWYQQKPGKAPKLLIHKASSLESGVPSRFSGSGSGTEFTLTISSLQPDDFATYYCQQYYTYPLTFGGGTKVEIKGGSSRSSSSGGGGSGGGGQVQLVQSGAEVKKPGASVKVSCKASGYTFTNYGITWVRQAPGQGLEWMGWISVYNGDTKYAQKLQGRVTMTTDTPTNTVYMELRSLRSDDTAVYYCARGYGSGNWDYWGQGTLVTVSS
notes: VH1-18, VDJ1, VL gene L12; also called PF1-2-6
With B1, the binding result in experiment [1] and in experiment [2] was “no binding” each time.

B2: 3-30/3h (scFv)
scFv: ELVLTQPPSVPVAPGQTANISCGGNNIGRQTVHWYQQKPGQAPVLVVFDDSDRPAGIPERFSGSNSGNTATLTISRVEAGDEADYYCQVWDSSSDHVVFGGGTQLTVLGGGSSRSSSSGGGGSGGGGQVQLVQSGGGVVQSGRSLRLSCAASGFTFSDYAMHWVRQAPGKGLEWVAVISHGGTKKYTGDSVKGRFIISRDNSKNTVFLQMNSLRVEDTAVYYCARDRVEGYVWGGTFDHWGQGTPVTVSS
notes: VH3-30, VDJ12, VL gene 3h; pathogenic; also called PF1-8-15; VH3-30 clone
Take B2: the binding result in experiment [1] and in experiment [2] was “no binding” in each case.
